Test results from patent publication US20070093443A1.

Biological target: T1, alpha-2 macroglobulin (in human plasma) (human) (UniProt P01023)
T1 sequence (looked up): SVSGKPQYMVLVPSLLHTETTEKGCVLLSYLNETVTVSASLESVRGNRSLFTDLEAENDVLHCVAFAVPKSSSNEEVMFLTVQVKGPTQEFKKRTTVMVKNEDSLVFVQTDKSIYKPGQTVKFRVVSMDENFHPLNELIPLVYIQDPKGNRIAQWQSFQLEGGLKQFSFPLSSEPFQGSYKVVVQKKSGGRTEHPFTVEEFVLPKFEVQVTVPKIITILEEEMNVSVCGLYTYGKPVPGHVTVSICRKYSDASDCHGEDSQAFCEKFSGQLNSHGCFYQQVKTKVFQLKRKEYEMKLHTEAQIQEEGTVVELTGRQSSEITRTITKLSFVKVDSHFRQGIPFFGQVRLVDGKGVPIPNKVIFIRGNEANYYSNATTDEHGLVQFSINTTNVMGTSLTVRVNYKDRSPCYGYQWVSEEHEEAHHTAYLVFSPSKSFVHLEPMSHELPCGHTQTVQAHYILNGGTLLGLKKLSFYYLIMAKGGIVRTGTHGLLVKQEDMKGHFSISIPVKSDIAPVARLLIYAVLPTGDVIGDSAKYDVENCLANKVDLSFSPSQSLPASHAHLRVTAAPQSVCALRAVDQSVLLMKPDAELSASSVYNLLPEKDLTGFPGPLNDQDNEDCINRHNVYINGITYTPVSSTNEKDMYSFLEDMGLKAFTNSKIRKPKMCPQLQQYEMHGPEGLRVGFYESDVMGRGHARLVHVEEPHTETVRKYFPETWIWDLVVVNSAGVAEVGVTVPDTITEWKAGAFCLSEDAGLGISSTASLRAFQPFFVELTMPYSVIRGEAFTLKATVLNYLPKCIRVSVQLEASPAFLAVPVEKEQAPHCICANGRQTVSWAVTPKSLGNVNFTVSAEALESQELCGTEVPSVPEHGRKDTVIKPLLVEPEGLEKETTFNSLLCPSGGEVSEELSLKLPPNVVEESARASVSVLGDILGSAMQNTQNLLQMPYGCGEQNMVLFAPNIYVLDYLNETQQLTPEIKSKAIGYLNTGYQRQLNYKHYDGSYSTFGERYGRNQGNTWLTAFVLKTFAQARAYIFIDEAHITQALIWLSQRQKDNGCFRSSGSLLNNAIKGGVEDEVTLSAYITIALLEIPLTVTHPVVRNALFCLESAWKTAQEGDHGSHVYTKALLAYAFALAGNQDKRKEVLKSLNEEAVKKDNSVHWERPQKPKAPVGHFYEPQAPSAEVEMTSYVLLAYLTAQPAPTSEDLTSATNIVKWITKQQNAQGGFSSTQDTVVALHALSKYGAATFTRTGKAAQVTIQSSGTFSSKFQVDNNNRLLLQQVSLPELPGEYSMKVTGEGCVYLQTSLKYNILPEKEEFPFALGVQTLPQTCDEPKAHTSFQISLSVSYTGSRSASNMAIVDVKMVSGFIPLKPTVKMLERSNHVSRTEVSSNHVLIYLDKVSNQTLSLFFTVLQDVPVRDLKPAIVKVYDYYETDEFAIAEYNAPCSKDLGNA
Assay: Ac-RQAR-AMC activity of protease after 5 min in human citrated plasma, with and without M84R ecotin

B1: modified MT-SP1 CB484 (I41T/Y146E/Q175D/K224F) protease domain (enzyme)
chain: VVGGTDADEGEWPWQVSLHALGQGHTCGASLISPNWLVSAAHCYIDDRGFRYSDPTQWTAFLGLHDQSQRSAPGVQERRLKRIISHPFFNDFTFDYDIALLELEKPAEYSSMVRPICLPDASHVFPAGKAIWVTGWGHTQEGGTGALILQKGEIRVINQTTCENLLPQDITPRMMCVGFLSGGVDSCQGDSGGPLSSVEADGRIFQAGVVSWGDGCAQRNFPGVYTRLPLFRDWIKENTGV
In the case of B1, the % Unbound by a2M is reported as 94%.
